This note sets out measurements from publication PMC4450770 (2016).

The target of this assay is tetraubiquitin chain (Homo sapiens, UniProt P0CG48, tetraubiquitin chain, N-terminal Dylight550-labeled ubiquitin). The assay is described as follows: single-molecule TIRF dwell time.

B1: 26S proteasome (protein)
chain 1: MVLESTMVCVDNSEYMRNGDFLPTRLQAQQDAVNIVCHSKTRSNPENNVGLITLANDCEVLTTLTPDTGRILSKLHTVQPKGKITFCTGIRVAHLALKHRQGKNHKMRIIAFVGSPVEDNEKDLVKLAKRLKKEKVNVDIINFGEEEVNTEKLTAFVNTLNGKDGTGSHLVTVPPGPSLADALISSPILAGEGGAMLGLGASDFEFGVDPSADPELALALRVSMEEQRQRQEEEARRAAAASAAEAGIATTGTEDSDDALLKMTISQQEFGRTGLPDLSSMTEEEQIAYAMQMSLQGAEFGQAESADIDASSAMDTSEPAKEEDDYDVMQDPEFLQSVLENLPGVDPNNEAIRNAMGSLASQATKDGKKDKKEEDKK
chain 2: TTSGALFPSLVPGSRGASNKYLVEFRAGKMSLKGTTVTPDKRKGLVYIQQTDDSLIHFCWKDRTSGNVEDDLIIFPDDCEFKRVPQCPSGRVYVLKFKAGSKRLFFWMQEPKTDQDEEHCRKVNEYLNNPPMPGALGASGSSGHELSALGGEGGLQSLLGNMSHSQLMQLIGPAGLGGLGGLGALTGPGLASLLGSSGPPGSSSSSSSRSQSAAVTPSSTTSSTRATPAPSAPAAASATSPSPAPSSGNGASTAASPTQPIQLSDLQSILATMNVPAGPAGGQQVDLASVLTPEIMAPILANADVQERLLPYLPSGESLPQTADEIQNTLTSPQFQQALGMFSAALASGQLGPLMCQFGLPAEAVEAANKGDVEAFAKAMQNNAKPEQKEGDTKDKKDEEEDMSLD
In the case of B1, binding was characterised by a dissociation constant (Kd) of 210 nM. That is a sub-micromolar value.
